# Assay results taken from doi:10.1101/2021.11.15.468501.
# Molecular target: human MCU-EMRE fusion protein (hME) (human)
substance,measurement,value
"MICU1EF (MICU1 with D231A, E242K, D421A, E432K), N-terminally MBP-tagged (from UniProt Q9BPX6 34-476) (natural protein)",time constant of the decay of hME Ca2+ current on perfusion of 10 μM MICU1EF,44 s
